Source: patent US20070134249A1 (GENITOPE, published 2007)

What was measured:
746 = target: T1, 746; experiment: ELISA; parameters: key to grade: 0 = <0.5 OD, 1 = 0.5-1.0 OD, 4 = 1-4 OD
T1 construct: H4-39 L2-8; also called PIN746
Excerpt: (§1) Before specificity screening, all of the clonal immunogen-positive hybridoma supernatants were re-screened on the immunogen, a non-family member Id protein, and KLH, if animals were immunized with Id protein that has been conjugated KLH. As described above, this screen identifies HC-specific clones but not mAbs against the light chain constant region. Clones identified positive to the immunogen and KLH were […]. Those found positive to the immunogen but not to the non-family member Id protein or KLH were tittered on the immunogen. In addition to normalizing for different binding affinities and concentrations, each hybridoma supernatant was titered on the fully human form of the Id protein used as the immunogen(s) for the V regions. The titer or dilution resulting in an ELISA absorbance of 2.5 to 3 OD after 30 min. incubation time was then used. Hybridoma specificity was determined by screening against available Id proteins expressing the same HV and KV or LV as well as different HV, KV and LV. The final ELISA results are expressed as follows: 0 (<0.5 OD), 1 (0.5-1.0 OD), or 4 (1-4 OD). Positive hybridoma supernatants are categorized according to specificity: anti-Id, anti-constant region (HC, KC or LC), or V region (HV, KV, LV family or family member).
(§2) In general, the fully human Id protein or proteins containing the immunogen V regions were coated onto 96-well ELISA plates at 2.5-5 ug/mL in carbonate buffer pH 9.6 and incubated at 4° C. for up to 14 days. On the day of the ELISA, plates were brought to RT and blocked with Tris-Tween-20, pH 7.6 for 15-60 min. at RT. Following a NaCl and Triton X-100 wash, diluted hybridoma cell culture supernatants were incubated overnight at 4° C. Hybridoma supernatant dilutions ranged from 1:2 to 1:25 and were prepared in PBS with 5% BSA. Plates were washed and incubated with HRP-conjugated goat anti-mouse IgG-specific detecting antibody. A chromogenic substrate (TMB) was used to measure the amount of mouse antibody bound to each well. The reaction was stopped at or before 30 minutes with IN H2SO4 and plates were read immediately. Absorbency readings at 450 nm ranging between 0-4 OD and using Molecular Devices plate reader and SOFTMAX PRO software.

647 = target: T2, 647; experiment: ELISA; parameters: key to grade: 0 = <0.5 OD, 1 = 0.5-1.0 OD, 4 = 1-4 OD
T2 construct: fully human Id protein; also called PIN647
Excerpt: as §1, §2

710 = target: T3, 710; experiment: ELISA; parameters: key to grade: 0 = <0.5 OD, 1 = 0.5-1.0 OD, 4 = 1-4 OD
T3 construct: H1-8 L2-8; also called PIN710
Excerpt: as §1, §2

116 = target: T4, 116; experiment: ELISA; parameters: key to grade: 0 = <0.5 OD, 1 = 0.5-1.0 OD, 4 = 1-4 OD
T4 construct: fully human Id protein; also called PIN116
Excerpt: as §1, §2

559 = target: T5, 559; experiment: ELISA; parameters: key to grade: 0 = <0.5 OD, 1 = 0.5-1.0 OD, 4 = 1-4 OD
T5 construct: H3-15 L2-23; also called PIN559
Excerpt: as §1, §2

625 = target: T6, 625; experiment: ELISA; parameters: key to grade: 0 = <0.5 OD, 1 = 0.5-1.0 OD, 4 = 1-4 OD
T6 construct: H4-61 L2-8; also called PIN625
Excerpt: as §1, §2

662 = target: T7, 662; experiment: ELISA; parameters: key to grade: 0 = <0.5 OD, 1 = 0.5-1.0 OD, 4 = 1-4 OD
T7 construct: fully human Id protein; also called PIN662
Excerpt: as §1, §2

787 = target: T8, 787; experiment: ELISA; parameters: key to grade: 0 = <0.5 OD, 1 = 0.5-1.0 OD, 4 = 1-4 OD
T8 construct: also called PIN787
Excerpt: as §1, §2

604 = target: T9, 604; experiment: ELISA; parameters: key to grade: 0 = <0.5 OD, 1 = 0.5-1.0 OD, 4 = 1-4 OD
T9 construct: H4-34 L2-8; also called PIN604
Excerpt: as §1, §2

[1] = target: T10, PIN574 fully human Id protein (HV4-39 / LV1-40) (human); experiment: ELISA; parameters: key to grade: 0 = <0.5 OD, 1 = 0.5-1.0 OD, 4 = 1-4 OD
T10 construct: Recombinant patient-derived idiotype immunoglobulin used as antigen, fully human form; also called Immunogen (for 20H5); not shown: human immunoglobulin heavy chain constant region, isotype G3 (HCG3); human immunoglobulin lambda light chain constant region (LC)
Excerpt: as §1, §2

552 = target: T11, 552; experiment: ELISA; parameters: key to grade: 0 = <0.5 OD, 1 = 0.5-1.0 OD, 4 = 1-4 OD
T11 construct: H1-18 L2-8; also called PIN552
Excerpt: as §1, §2

[2] = target: T12, PIN149 fully human Id protein (HV3-23 / KV4-1) (human); experiment: SPR (BIACORE 2000); mAb captured on anti-mouse surface, fully human Id protein as analyte
T12 construct: Recombinant patient-derived idiotype immunoglobulin used as antigen; also called PIN149 Id protein; Immunogen (for 3C9, 6C9, 10H7, 15E1); not shown: human immunoglobulin heavy chain constant region, isotype G3 (HCG3); human immunoglobulin kappa light chain constant region (KC)
Method: (§3) Binding constants were also determined for three of the sequenced clones (3C9, 10H7, and 20H5), as well as for two additional clones (6C9 and 15E1). The association and disassociation rates were measured by surface plasmon resonance using a BIACORE 2000 machine.
(§4) In addition, based on ELISA results, PIN185 was used as a positive control Id protein for 10H7 and 15E1 and a negative control Id protein for 3C9 and 6C9 and PIN149 was used as a non-binding Id protein for 20H5. Each mAb was captured onto an anti-mouse surface and tested for binding to the fully human Id protein. Following the mAb capture phase of the assay for the (@2 ug/ml), the fully human Id proteins were all diluted to a starting concentration of 250 nM and tested in a three fold dilution series. Each concentration was tested in duplicate. The running buffer contained PBS plus 0.005% tween-20 and 0.1 mg/ml BSA as a carrier. Binding data were collected at 25° C. […] The other data sets all fit well to a single site interaction model.

[3] = target: T10, PIN574 fully human Id protein (HV4-39 / …); experiment: SPR (BIACORE 2000); mAb captured on anti-mouse surface, fully human Id protein as analyte, 25 C
Method: as §3, §4

T10 sequence (VH, as listed by the source, chain 1 of 2): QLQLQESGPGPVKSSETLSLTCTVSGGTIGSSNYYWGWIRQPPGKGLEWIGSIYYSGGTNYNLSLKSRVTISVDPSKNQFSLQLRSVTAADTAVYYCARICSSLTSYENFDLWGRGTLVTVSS
T10 sequence (VL, as listed by the source, chain 2 of 2): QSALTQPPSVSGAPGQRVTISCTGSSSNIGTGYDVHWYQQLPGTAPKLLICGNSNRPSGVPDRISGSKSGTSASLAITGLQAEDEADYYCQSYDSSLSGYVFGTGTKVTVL
T7 sequence (heavy, as listed by the source): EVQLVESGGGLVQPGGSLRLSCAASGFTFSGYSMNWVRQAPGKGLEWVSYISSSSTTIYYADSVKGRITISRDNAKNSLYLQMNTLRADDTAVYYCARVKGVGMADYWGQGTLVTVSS
T4 sequence (VH, as listed by the source, chain 1 of 2): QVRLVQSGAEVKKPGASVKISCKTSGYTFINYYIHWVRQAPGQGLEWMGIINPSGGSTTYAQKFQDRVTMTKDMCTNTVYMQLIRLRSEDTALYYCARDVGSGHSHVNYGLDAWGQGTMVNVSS
T4 sequence (V domain, as listed by the source, chain 2 of 2): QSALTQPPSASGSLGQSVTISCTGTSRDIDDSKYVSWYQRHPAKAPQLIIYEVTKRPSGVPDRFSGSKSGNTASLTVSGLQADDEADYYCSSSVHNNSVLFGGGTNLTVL
T12 sequence (VH, as listed by the source, chain 1 of 2): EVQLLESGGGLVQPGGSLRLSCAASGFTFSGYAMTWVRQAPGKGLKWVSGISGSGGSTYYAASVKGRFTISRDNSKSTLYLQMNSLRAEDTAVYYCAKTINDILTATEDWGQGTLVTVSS
T12 sequence (VL, as listed by the source, chain 2 of 2): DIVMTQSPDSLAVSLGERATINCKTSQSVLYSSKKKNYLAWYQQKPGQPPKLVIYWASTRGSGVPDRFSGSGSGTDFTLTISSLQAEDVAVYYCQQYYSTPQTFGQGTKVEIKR
T2 sequence (VH, as listed by the source, chain 1 of 2): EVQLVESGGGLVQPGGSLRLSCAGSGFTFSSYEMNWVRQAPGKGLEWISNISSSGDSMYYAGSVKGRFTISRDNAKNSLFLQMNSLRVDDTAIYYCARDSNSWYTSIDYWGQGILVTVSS
T2 sequence (VL, as listed by the source, chain 2 of 2): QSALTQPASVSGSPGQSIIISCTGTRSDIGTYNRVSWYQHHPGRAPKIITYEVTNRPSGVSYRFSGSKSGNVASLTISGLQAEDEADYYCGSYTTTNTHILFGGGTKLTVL

| Binder | grade 746 | binding result 647 | grade 710 | grade 116 | grade 559 | grade 625 | grade 662 | grade 787 | grade 604 | binding result [1] | grade 552 | binding result [2] | Kd [3] [nM] | koff [3] [s⁻¹] | kon [3] [M⁻¹ s⁻¹] |
| --- | --- | --- | --- | --- | --- | --- | --- | --- | --- | --- | --- | --- | --- | --- | --- |
| mAb clone 15E8 (antibody, V domains shown, Mouse hybridoma mAb, fusion 16 (immunogen PIN116)) VH: QVQLQQPGAELVMPGASVKMSCKASGYTFTDYWMHWVKQRPGQGLEWIGTIDTSDSYTNYNQKFKGKATLTVDESSSTAYMQLSSLTSEDSAVYYCVRWKKYGNYFFDYWGQGTTLTVSS VL: DIVMTQSHKFMSTSVGDRVSITCKASQDVNTAVAWYQQKPGQSPKLLIYWASTRHTGVPDRFTGSGSGTDFSLTISSVQAEDLGLYYCQQCYSTPYAFGGGTKLEIKR | 4 | no binding | 4 | 4 | 4 | 4 | 4 | 1 | 4 | no binding | 4 | – | – | – | – |
| mAb clone 20H5 (antibody, V domains shown, Mouse hybridoma mAb, fusion 10 (immunogen fully human PIN574 Id protein)) VH: QVQLKESGPDLVAPSQSLSITCTVSGFSLTSYGVHWVRQPPGKGLEWLVVIWSDGSTTNNSPLKSRLSISKDNSKSQVFLKMNSLQTDDTAMYYCARHWGTTVVDAMDYWGQGTSVTVSS VL: DIQMTQTTSSLSASLGDRVIISCRASQDIRNYLNWYQQKPDGTVKLLIYYTSQLHSGVPSRFSGSGSGTDYSLTINNLSEQEDIATYFCQQYDTLPWTFGGGTKLEIKR | – | – | – | – | – | – | – | – | – | – | – | no binding | 1.92 | 0.000146 | 75900 |
